Measurements published in the supplement of paper PMC7125110.
± gives the standard error. This sample holds only a part of the variants without activity.

B1: glmS ribozyme (parent)
chain: AUAAAAGCGCCAGAACUACAGAAAUGUAGUUGACGAGGAGGAGGUUUAUCGAAUUUUCGGCGGAUGCCUCCAAA

What was measured:
Settings in all cases: with glucosamine-6-phosphate
glucosamine-6-phosphate [1] = variants of: B1; test: self-cleavage kobs at 640 uM GlcN6P; higher = faster cleavage; RNA array
How it was run: (§1)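 Glucosamine-6-phosphate (40 μM to 10 mM) in HEPES/KCl/Mg(OAc)2 buffer was flowed over sequenced MiSeq chips, and tiles were imaged over ~14 h. Barcoded ribozyme variants there had been transcribed in situ by E. coli RNA polymerase and were tracked through a hybridised Cy3 probe at 37 °C. One- or two-exponential decay fits to per-tile medians, normalised to baseline and to non-cleaving reference variants, gave kobs. kcat and KM came from weighted Michaelis–Menten fits across concentrations.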

glucosamine-6-phosphate [2] = variants of: B1; test: self-cleavage kobs at 2500 uM GlcN6P; higher = faster cleavage; RNA array
How it was run: as §1

glucosamine-6-phosphate [3] = variants of: B1; test: self-cleavage kobs at 10000 uM GlcN6P; higher = faster cleavage; RNA array
How it was run: as §1

Variant	self-cleavage kobs at 640 uM GlcN6P (glucosamine-6-phosphate [1]) [s⁻¹]	self-cleavage kobs at 2500 uM GlcN6P (glucosamine-6-phosphate [2]) [s⁻¹]	self-cleavage kobs at 10000 uM GlcN6P (glucosamine-6-phosphate [3]) [s⁻¹]
G9C G63U G66A C68A C71A	< 1e-05	< 1e-05	
C11A U31A G60A	< 1e-05		
A14C U56G U57A C71A	8.95e-05 ± 2.3e-05	5.04e-05 ± 2e-05	
C16U G60U C61G	< 1e-05		
G7U C61U C68G	0.00114 ± 0.00049		
A14C G40U A52U	< 1e-05		
G32C A36G G37U	< 1e-05		
A39G U49A C68U	< 1e-05		
A6G G38A C68G	< 1e-05		
G9C G37C C70G	< 1e-05	< 1e-05	
A36U U56A	< 1e-05		< 1e-05
C11A U56A C70U C71A	0.000256 ± 7.9e-05		
A14G U31A G41A C71U	0.000186 ± 7.9e-05	0.000396 ± 0.00011	
A12U C68A	7.24e-05 ± 3.4e-05	2.89e-05 ± 1.2e-05	
C10U A14U C16G U45G	< 1e-05		
A6C G37U U49A	< 1e-05		< 1e-05
G29U A53C G62C	< 1e-05		
A15G C58A U69G	0.000122 ± 3.7e-05	8.9e-05 ± 2.5e-05	

Variant	self-cleavage kobs at 640 uM GlcN6P (glucosamine-6-phosphate [1]) [s⁻¹]	self-cleavage kobs at 2500 uM GlcN6P (glucosamine-6-phosphate [2]) [s⁻¹]	self-cleavage kobs at 10000 uM GlcN6P (glucosamine-6-phosphate [3]) [s⁻¹]
A15U G35U G59A	< 1e-05		
A33G G40U C58A C67A	< 1e-05	< 1e-05	
G9U A42G	< 1e-05		
A14C A33C C67G	< 1e-05		
C10G C11A C58G G63U C68A	0.000138 ± 3.5e-05	0.000117 ± 3.3e-05	
C11U U56A C70G	0.000217 ± 5.8e-05	0.000145 ± 3e-05	
A15C A33C A36C	< 1e-05		
G44A C61A C71U	< 1e-05	< 1e-05	
G35C G59U C61A	< 1e-05		
C8A C16A G32C A42G	< 1e-05		
G35C G37U U56G	< 1e-05		
C34U A39U	< 1e-05	< 1e-05	< 1e-05
G37A G41A A42C U46C	< 1e-05		
G7U G41A U69G	< 1e-05		
G44U U45G A53C	0.000372 ± 0.00011		
G37U G51A G66C	< 1e-05		
A14C A42G G66A	0.000473 ± 0.00012		0.00177 ± 0.0006
U47C U54G G60A	< 1e-05		
